No end group written: not given here. *: point of attachment. FITC = O=C1OC2(c3ccc(O)cc3Oc3cc(O)ccc32)c2ccc(NC(=S)*)cc21
Columns and labels:
Conditions in all cases: both partners purified
moesin FERM domain [1] = molecular target: T1, moesin FERM domain (UniProt P26038 2-295); assay: fluorescence polarisation; competition: precomplex of FERM domain (2 x KD) and FITC-KIRREL3(637–652) probe, titrated with unlabeled peptide; constants printed as KD′; FP buffer
T1 construct: moesin FERM domain from pGEX4T Moesin FERM; also called WT moesin; source: E. coli BL21(DE3), purified (GSH sepharose, thrombin cleavage on beads, benzamidine column, gel filtration); not shown: GST, N-terminal, cleaved

merlin FERM domain = molecular target: T2, merlin FERM domain (human, UniProt P35240 22-312); assay: fluorescence polarisation; direct binding: 5 nM FITC-labeled probe peptide titrated with FERM domain; 20 mM HEPES pH 7.4, 150 mM NaCl, 0.05% Tween-20, 3 mM DTT; quadratic equation for 1:1 binding
T2 construct: human merlin (NF2) FERM domain, amino acids 22-312, synthetic gene in pETM33; source: E. coli BL21(DE3), purified (GSH sepharose, HRV3C cleavage, reverse Ni-IMAC); not shown: His, N-terminal, cleaved; GST, N-terminal, cleaved
T2 sequence (looked up): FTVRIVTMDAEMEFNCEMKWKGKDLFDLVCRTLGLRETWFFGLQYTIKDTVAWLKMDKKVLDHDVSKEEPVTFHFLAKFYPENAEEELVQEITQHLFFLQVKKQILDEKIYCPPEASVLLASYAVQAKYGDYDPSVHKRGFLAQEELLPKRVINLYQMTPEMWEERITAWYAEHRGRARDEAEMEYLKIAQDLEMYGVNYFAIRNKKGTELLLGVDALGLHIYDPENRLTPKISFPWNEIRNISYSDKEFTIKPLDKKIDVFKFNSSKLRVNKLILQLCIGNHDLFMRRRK

[2] = molecular target: T3, radixin FERM domain (as used in FP) (human, UniProt P35241 5-295); assay: as above
T3 construct: human radixin FERM domain, amino acids 5-295, synthetic gene in pETM33; source: E. coli BL21(DE3), purified (GSH sepharose)

[3] = molecular target: T3, radixin FERM domain (as used in FP); assay: fluorescence polarisation; competition: precomplex of FERM domain (2 x KD) and FITC-KIRREL3(637–652) probe, titrated with unlabeled peptide; constants printed as KD′; FP buffer
[4] = molecular target: T4, ezrin FERM domain (as used in FP) (UniProt P15311 2-296); assay: as above
T4 construct: ezrin FERM domain from pGEX4T1 Ezrin FERM; source: E. coli BL21(DE3), purified (GSH sepharose)

moesin FERM M285A/H288A [5] = molecular target: T5, moesin FERM M285A/H288A (UniProt P26038 2-295, M285A | H288A); assay: fluorescence polarisation; direct binding: 5 nM FITC-labeled probe peptide titrated with FERM domain; 20 mM HEPES pH 7.4, 150 mM NaCl, 0.05% Tween-20, 3 mM DTT; quadratic equation for 1:1 binding
T5 construct: moesin FERM domain from pGEX4T Moesin FERM, double mutant; tag removal is told for moesin FERM in FP in general; also called moesin FERM M285/H288A; source: E. coli BL21(DE3), purified; not shown: GST, N-terminal, cleaved

moesin FERM K211A/I238A [6] = molecular target: T6, moesin FERM K211A/I238A (UniProt P26038 2-295, K211A | I238A); assay: as above
T6 construct: moesin FERM domain from pGEX4T Moesin FERM, double mutant; tag removal is told for moesin FERM in FP in general; also called moesin K211A/I238A; source: E. coli BL21(DE3), purified; not shown: GST, N-terminal, cleaved

Moesin FERM K211A/I238A [7] = molecular target: T7, Moesin FERM K211A/I238A (human, UniProt P26038 2-295, K211A | I238A); assay: fluorescence polarisation; direct binding: FITC-labeled probe peptide (5 nM) titrated with a dilution series of moesin FERM domain; 20 mM HEPES, pH 7.4, 150 mM NaCl, 0.05% Tween-20, 3 mM DTT; quadratic equation for 1:1 binding
T7 construct: moesin (P26038) FERM domain from pGEX4T Moesin FERM (Addgene plasmid # 1163); also called moesin K211A/I238A; double mutant moesin FERM K211A/I238A; source: E. coli BL21(DE3), purified (GSH sepharose, thrombin cleavage, HiTrap benzamidine)

Moesin FERM M285A/H288A [8] = molecular target: T8, Moesin FERM M285A/H288A (human, UniProt P26038 2-295, M285A | H288A); assay: as above
T8 construct: moesin (P26038) FERM domain from pGEX4T Moesin FERM (Addgene plasmid # 1163); also called moesin FERM domain (M285A and H288A); moesin FERM M285/H288A; source: E. coli BL21(DE3), purified (GSH sepharose, thrombin cleavage, HiTrap benzamidine)

moesin FERM domain [9] = molecular target: T1, moesin FERM domain; assay: fluorescence polarisation; competition: precomplex of moesin FERM and FITC-ZNF622 probe, titrated with unlabeled peptide; constants printed as KD′; FP buffer (for HIF1A the text names FITC-NOP53 as probe, the table's footnote FITC-ZNF622)

T1 sequence (P26038 2-295): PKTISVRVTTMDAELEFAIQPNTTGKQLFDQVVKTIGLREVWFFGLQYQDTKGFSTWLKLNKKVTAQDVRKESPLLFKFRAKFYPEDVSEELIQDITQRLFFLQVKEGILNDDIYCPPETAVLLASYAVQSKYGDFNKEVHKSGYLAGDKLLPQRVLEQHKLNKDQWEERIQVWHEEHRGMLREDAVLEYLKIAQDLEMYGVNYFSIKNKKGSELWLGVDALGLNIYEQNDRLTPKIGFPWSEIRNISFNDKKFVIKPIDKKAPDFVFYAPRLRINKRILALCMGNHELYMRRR
T7 sequence (P26038 2-295 K211A/I238A): as the sequence (P26038 2-295) above, with K210A, I237A counted along it
T8 sequence (P26038 2-295 M285A/H288A): as the sequence (P26038 2-295) above, with M284A, H287A counted along it
T4 sequence (P15311 2-296): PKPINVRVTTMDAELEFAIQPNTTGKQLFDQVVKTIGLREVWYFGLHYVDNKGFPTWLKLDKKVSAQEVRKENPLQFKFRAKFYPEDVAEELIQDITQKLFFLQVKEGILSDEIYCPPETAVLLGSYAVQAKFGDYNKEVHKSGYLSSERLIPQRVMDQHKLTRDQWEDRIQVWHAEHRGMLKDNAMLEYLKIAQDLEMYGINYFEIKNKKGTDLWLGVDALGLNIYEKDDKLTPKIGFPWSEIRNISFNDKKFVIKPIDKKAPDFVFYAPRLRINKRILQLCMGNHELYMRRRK
T3 sequence (P35241 5-295): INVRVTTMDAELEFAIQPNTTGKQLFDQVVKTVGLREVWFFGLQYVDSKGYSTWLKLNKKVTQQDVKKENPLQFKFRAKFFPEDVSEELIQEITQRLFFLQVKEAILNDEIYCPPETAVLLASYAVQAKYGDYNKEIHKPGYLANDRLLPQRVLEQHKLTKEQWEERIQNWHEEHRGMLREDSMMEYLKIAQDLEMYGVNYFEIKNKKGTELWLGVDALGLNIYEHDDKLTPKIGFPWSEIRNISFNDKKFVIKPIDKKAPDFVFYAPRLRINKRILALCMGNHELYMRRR
T6 sequence (P26038 2-295 K211A/I238A): as the sequence (P26038 2-295) above, with K210A, I237A counted along it
T5 sequence (P26038 2-295 M285A/H288A): as the sequence (P26038 2-295) above, with M284A, H287A counted along it

B1: ICAM3(516–531) peptide (peptide)
peptide: SGSYHVREESTYLPLT
notes: ICAM3, human, residues 516-531; source: synthetic peptide (GeneCust)
- Kd (moesin FERM domain [1]): 113 ± 3 µM

B2: PDCD6IP(853–868) peptide (peptide)
peptide: SYPFPQPPQQSYYPQQ
notes: PDCD6IP, human, residues 853-868; source: synthetic peptide (GeneCust)
- Kd (moesin FERM domain [1]): 35.2 ± 0.2 µM

B3: FITC-ZNF622(341–356) peptide (peptide, UniProt Q969S3 341-356, looked up)
peptide: LEFADFYDFRSSYPDH
modifications: not fully specified (N-terminus); also: FITC label (position not given here)
notes: also called FITC-ZNZ622; source: synthetic peptide (GeneCust)
- binding result (merlin FERM domain): binds
- binding result [2]: binds

B4: FITC-LATS1(73–88) peptide (peptide)
peptide: THHKALQEIRNSLLPF
modifications: also: FITC label, position not given here
notes: LATS1, human, residues 73-88; also called LATS(73–88); source: synthetic peptide (GeneCust)
- binding result (merlin FERM domain): binds
- binding result [2]: binds

B5: FITC-NOP53(192–207) peptide (peptide)
peptide: FYDLWASDNPLDRPLV
modifications: also: FITC label, position not given here
notes: NOP53, human, residues 192-207; source: synthetic peptide (GeneCust)
- binding result (merlin FERM domain): binds
- binding result [2]: binds

B6: CAMK2B(13–28) peptide (peptide)
peptide: EYQLYEDIGKGAFSVV
notes: CAMK2B, human, residues 13-28; source: synthetic peptide (GeneCust)
- Kd (moesin FERM domain [1]): 96 ± 4 µM
- Kd [3]: 6.8 ± 0.4 µM
- Kd [4]: 26 ± 0.6 µM

B7: LATS1(421–436) peptide (peptide)
peptide: LYNISVPGLQTNWPQS
notes: LATS1, human, residues 421-436; source: synthetic peptide (GeneCust)
- Kd (moesin FERM domain [1]): 149 ± 5 µM

B8: GCM2(274–289) peptide (peptide)
peptide: SYELANPGYTNSSPYP
notes: GCM2, human, residues 274-289; source: synthetic peptide (GeneCust)
- Kd (moesin FERM domain [1]): 38 ± 3 µM
- Kd [3]: 85 ± 3 µM
- Kd [4]: 205 ± 11 µM

B9: RRBP1(1365–1380) peptide (peptide)
peptide: RAATRLQELLKTTQEQ
notes: RRBP1, human, residues 1365-1380; also called RRBP1 peptide; source: synthetic peptide (GeneCust)
- Kd (merlin FERM domain): 9.7 ± 0.8 µM

B10: FITC-FAM83G(111–126) peptide (peptide, UniProt A6ND36 111-126, looked up)
peptide: AEPLPSLEYWPQKSDR
modifications: also: FITC label (position not given here)
notes: FAM83G, human, residues 111-126; source: synthetic peptide (GeneCust)
- binding result [2]: binds

B11: FITC-EBP50(348–358) peptide (peptide, UniProt O14745 348-358, looked up)
peptide: WSKKNELFSNL
modifications: also: FITC label, position not given here
notes: source: synthetic peptide (GeneCust)
- binding result (merlin FERM domain): binds
- binding result (moesin FERM M285A/H288A [5]): binds
- binding result [2]: binds
- binding result (moesin FERM K211A/I238A [6]): binds

B12: FITC-KIRREL3(637–652) peptide (peptide, UniProt Q8IZU9 637-652, looked up)
peptide: YYSVNTFKEHHSTPTI
modifications: also: FITC label, position not given here
notes: as for B11
- binding result [2]: binds

B13: FITC-EBP50 343-358 peptide (peptide)
peptide: {FITC}-APQMDWSKKNELFSNL-OH
modifications: not fully specified
notes: also called NHERF1; source: synthetic peptide (GeneCust)
- Kd (Moesin FERM K211A/I238A [7]): 114 ± 7 µM
- Kd (Moesin FERM M285A/H288A [8]): 3.1 ± 0.2 µM

B14: FITC-TBX4 428-443 peptide (peptide)
peptide: SYSVQTMETVPYQPFP
modifications: also: FITC label, position not given here
notes: TBX4 (T-box transcription factor TBX4), residues 428-443; source: synthetic peptide (GeneCust)
- Kd (Moesin FERM K211A/I238A [7]): 2.17 ± 0.31 µM
- Kd (Moesin FERM M285A/H288A [8]): 6.9 ± 0.4 µM

B15: FITC-LATS1 73-88 peptide (peptide)
peptide: THHKALQEIRNSLLPF
modifications: also: FITC label, position not given here
notes: LATS1, residues 73-88; source: synthetic peptide (GeneCust)
- Kd (Moesin FERM K211A/I238A [7]): 7.4 ± 0.5 µM
- Kd (Moesin FERM M285A/H288A [8]): 1.3 ± 0.1 µM

B16: FITC-ZNF622 341-356 peptide (peptide)
peptide: LEFADFYDFRSSYPDH
modifications: also: FITC label, position not given here
notes: as for B11
- Kd (Moesin FERM K211A/I238A [7]): 46 ± 2 µM
- Kd (Moesin FERM M285A/H288A [8]): 1.3 ± 0.1 µM

B17: FITC-NOP53 192-207 peptide (peptide)
peptide: FYDLWASDNPLDRPLV
modifications: also: FITC label, position not given here
notes: NOP53, residues 192-207; source: synthetic peptide (GeneCust)
- Kd (Moesin FERM K211A/I238A [7]): 42 ± 1 µM
- Kd (Moesin FERM M285A/H288A [8]): 2.2 ± 0.1 µM

B18: FITC-KIRREL3 637-652 peptide (peptide)
peptide: YYSVNTFKEHHSTPTI
modifications: also: FITC label, position not given here
notes: as for B11
- Kd (Moesin FERM K211A/I238A [7]): 0.17 ± 0.02 µM
- Kd (Moesin FERM M285A/H288A [8]): 0.84 ± 0.05 µM

B19: FITC-TBX4(428–443) peptide (peptide, UniProt P57082 428-443, looked up)
peptide: SYSVQTMETVPYQPFP
modifications: also: FITC label, position not given here
notes: T-box transcription factor TBX4, human, residues 428-443; source: synthetic peptide (GeneCust)
- binding result [2]: binds

B20: RORA(185–200) peptide (peptide)
peptide: TYNISANGLTELHDDL
notes: RORA, human, residues 185-200; source: synthetic peptide (GeneCust)
- Kd (moesin FERM domain [1]): 134 ± 3 µM

B21: RIMS1(1405–1420) peptide (peptide)
peptide: MYTLEHNDGSQSDTAV
notes: RIMS1, human, residues 1405-1420; source: synthetic peptide (GeneCust)
- Kd (moesin FERM domain [1]): 564 ± 5 µM

B22: HIF1A(37–52) peptide (peptide)
peptide: FYELAHQLPLPHNVSS
notes: HIF1A, human, residues 37-52; source: synthetic peptide (GeneCust)
- Kd (moesin FERM domain [9]): 3 ± 0.4 µM

B23: BOC(1000–1015) peptide (peptide)
peptide: LYTLPDDSTHQLLQPH
notes: BOC, human, residues 1000-1015; source: synthetic peptide (GeneCust)
- Kd (moesin FERM domain [1]): 18 ± 1 µM
- Kd [3]: 17 ± 2 µM
- Kd [4]: 8 ± 0.1 µM

B24: MISP(595–610) peptide (peptide)
peptide: ITGSYSVSESPFFSPI
notes: also called MISP3 peptide; source: synthetic peptide (GeneCust)
- Kd (moesin FERM domain [1]): 2.3 ± 0.1 µM
